# Experimental data: article PMC10541012
# Key:
# [1] = target: Cdh1 (UniProt P53197); test: FLAG-bead in vitro Co-IP, immunoblot; conditions: reference: wild type FLAG-Set1; sites S228
# [2] = target: Cdh1 (UniProt P53197); test: FLAG-bead in vitro Co-IP after Cla4; conditions: reference: wild type FLAG-Set1, Cla4-treated; sites S228
substance,measurement,setting,value
Set1 (from UniProt P38827) FLAG-Set1-S228A,binding against the reference,[1],stronger
"Set1 (from UniProt P38827) FLAG-Set1-S228A, Cla4-treated",binding against the reference,[2],stronger
